# Reference: IntAct's records for PubMed 35512704
# B1: Speckle-type POZ protein (Homo sapiens), O43791 (parent)
# chain: MSRVPSPPPPAEMSSGPVAESWCYTQIKVVKFSYMWTINNFSFCREEMGEVIKSSTFSSGANDKLKWCLRVNPKGLDEESKDYLSLYLLLVSCPKSEVRAKFKFSILNAKGEETKAMESQRAYRFVQGKDWGFKKFIRRDFLLDEANGLLPDDKLTLFCEVSVVQDSVNISGQNTMNMVKVPECRLADELGGLWENSRFTDCCLCVAGQEFQAHKAILAARSPVFSAMFEHEMEESKKNRVEINDVEPEVFKEMMCFIYTGKAPNLDKMADDLLAAADKYALERLKVMCEDALCSNLSVENAAEILILADLHSADQLKTQAVDFINYHASDVLETSGWKSMVVSHPHLVAEAYRSLASAQCPFLGPPRKRLKQS
# Variants of: B1
# Details: with rxra_human RXRA
row,Variant,effect of a mutation on the interaction
1,MSRVPSPPPPAEMSSGPVAESWCYTQIKVVKFSYMWTINNFSFCREEMGEVIKSSTFSSGANDKLKWCLRVNPKGLDEESKDYLSLYLLLVSCPKSEVRAKCKFSILNAKGEETKAMESQRAYRFVQGKDWGFKKFIRRDFLLDEANGLLPDDKLTLFCEVSVVQDSVNISGQNTMNMVKVPECRLADELGGLWENSRFTDCCLCVAGQEFQAHKAILAARSPVFSAMFEHEMEESKKNRVEINDVEPEVFKEMMCFIYTGKAPNLDKMADDLLAAADKYALERLKVMCEDALCSNLSVENAAEILILADLHSADQLKTQAVDFINYHASDVLETSGWKSMVVSHPHLVAEAYRSLASAQCPFLGPPRKRLKQS [F102C],with no effect

# Variants of: B1
# Details: with sdha_human SDHA
row,Variant,effect of a mutation on the interaction
1,MSRVPSPPPPAEMSSGPVAESWCYTQIKVVKFSYMWTINNFSFCREEMGEVIKSSTFSSGANDKLKWCLRVNPKGLDEESKDYLSLYLLLVSCPKSEVRAKCKFSILNAKGEETKAMESQRAYRFVQGKDWGFKKFIRRDFLLDEANGLLPDDKLTLFCEVSVVQDSVNISGQNTMNMVKVPECRLADELGGLWENSRFTDCCLCVAGQEFQAHKAILAARSPVFSAMFEHEMEESKKNRVEINDVEPEVFKEMMCFIYTGKAPNLDKMADDLLAAADKYALERLKVMCEDALCSNLSVENAAEILILADLHSADQLKTQAVDFINYHASDVLETSGWKSMVVSHPHLVAEAYRSLASAQCPFLGPPRKRLKQS [F102C],with no effect

# Variants of: B1
# Details: with setbp_human SETBP1, Q9Y6X0
row,Variant,effect of a mutation on the interaction
1,MSRVPSPPPPAEMSSGPVAESWCYTQIKVVKFSYMWTINNFSFCREEMGEVIKSSTFSSGANDKLKWCLRVNPKGLDEESKDYLSLYLLLVSCPKSEVRAKCKFSILNAKGEETKAMESQRAYRFVQGKDWGFKKFIRRDFLLDEANGLLPDDKLTLFCEVSVVQDSVNISGQNTMNMVKVPECRLADELGGLWENSRFTDCCLCVAGQEFQAHKAILAARSPVFSAMFEHEMEESKKNRVEINDVEPEVFKEMMCFIYTGKAPNLDKMADDLLAAADKYALERLKVMCEDALCSNLSVENAAEILILADLHSADQLKTQAVDFINYHASDVLETSGWKSMVVSHPHLVAEAYRSLASAQCPFLGPPRKRLKQS [F102C],with no effect

# Variants of: B1
# Details: with skp2_human SKP2, Q13309
# skp2_human SKP2, Q13309, sequence (Q13309 whole entry): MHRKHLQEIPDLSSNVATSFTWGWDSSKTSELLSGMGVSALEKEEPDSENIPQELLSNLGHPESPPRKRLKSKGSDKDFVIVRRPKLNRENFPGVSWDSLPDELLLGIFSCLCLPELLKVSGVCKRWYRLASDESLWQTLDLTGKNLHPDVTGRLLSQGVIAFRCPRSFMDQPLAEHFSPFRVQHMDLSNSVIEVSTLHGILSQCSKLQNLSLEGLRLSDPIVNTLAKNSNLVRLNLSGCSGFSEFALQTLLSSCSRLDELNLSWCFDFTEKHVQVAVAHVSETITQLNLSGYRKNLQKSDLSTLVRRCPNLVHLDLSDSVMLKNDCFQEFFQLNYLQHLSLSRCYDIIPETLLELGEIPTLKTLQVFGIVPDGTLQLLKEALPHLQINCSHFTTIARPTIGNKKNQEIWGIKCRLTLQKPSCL
row,Variant,effect of a mutation on the interaction
1,MSRVPSPPPPAEMSSGPVAESWCYTQIKVVKFSYMWTINNFSFCREEMGEVIKSSTFSSGANDKLKWCLRVNPKGLDEESKDYLSLYLLLVSCPKSEVRAKCKFSILNAKGEETKAMESQRAYRFVQGKDWGFKKFIRRDFLLDEANGLLPDDKLTLFCEVSVVQDSVNISGQNTMNMVKVPECRLADELGGLWENSRFTDCCLCVAGQEFQAHKAILAARSPVFSAMFEHEMEESKKNRVEINDVEPEVFKEMMCFIYTGKAPNLDKMADDLLAAADKYALERLKVMCEDALCSNLSVENAAEILILADLHSADQLKTQAVDFINYHASDVLETSGWKSMVVSHPHLVAEAYRSLASAQCPFLGPPRKRLKQS [F102C],with no effect

# Variants of: B1
# Details: with smad1_human SMAD1, Q15797
# smad1_human SMAD1, Q15797, sequence (Q15797 whole entry): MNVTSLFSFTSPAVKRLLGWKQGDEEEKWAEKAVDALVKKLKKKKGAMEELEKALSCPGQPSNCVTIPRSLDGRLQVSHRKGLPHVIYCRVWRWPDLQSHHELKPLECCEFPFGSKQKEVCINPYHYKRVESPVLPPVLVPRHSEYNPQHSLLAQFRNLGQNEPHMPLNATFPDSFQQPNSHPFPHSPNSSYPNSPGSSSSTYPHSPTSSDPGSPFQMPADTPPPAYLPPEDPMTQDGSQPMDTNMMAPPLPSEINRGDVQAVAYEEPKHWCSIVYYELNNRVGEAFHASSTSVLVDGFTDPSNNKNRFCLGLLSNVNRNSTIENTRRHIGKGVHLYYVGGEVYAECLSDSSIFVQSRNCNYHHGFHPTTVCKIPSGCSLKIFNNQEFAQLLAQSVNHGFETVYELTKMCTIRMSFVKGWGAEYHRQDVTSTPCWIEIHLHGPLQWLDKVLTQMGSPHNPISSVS
row,Variant,effect of a mutation on the interaction
1,MSRVPSPPPPAEMSSGPVAESWCYTQIKVVKFSYMWTINNFSFCREEMGEVIKSSTFSSGANDKLKWCLRVNPKGLDEESKDYLSLYLLLVSCPKSEVRAKCKFSILNAKGEETKAMESQRAYRFVQGKDWGFKKFIRRDFLLDEANGLLPDDKLTLFCEVSVVQDSVNISGQNTMNMVKVPECRLADELGGLWENSRFTDCCLCVAGQEFQAHKAILAARSPVFSAMFEHEMEESKKNRVEINDVEPEVFKEMMCFIYTGKAPNLDKMADDLLAAADKYALERLKVMCEDALCSNLSVENAAEILILADLHSADQLKTQAVDFINYHASDVLETSGWKSMVVSHPHLVAEAYRSLASAQCPFLGPPRKRLKQS [F102C],with no effect

# Variants of: B1
# Details: with smca4_human SMARCA4, P51532
# smca4_human SMARCA4, P51532, sequence (P51532 whole entry): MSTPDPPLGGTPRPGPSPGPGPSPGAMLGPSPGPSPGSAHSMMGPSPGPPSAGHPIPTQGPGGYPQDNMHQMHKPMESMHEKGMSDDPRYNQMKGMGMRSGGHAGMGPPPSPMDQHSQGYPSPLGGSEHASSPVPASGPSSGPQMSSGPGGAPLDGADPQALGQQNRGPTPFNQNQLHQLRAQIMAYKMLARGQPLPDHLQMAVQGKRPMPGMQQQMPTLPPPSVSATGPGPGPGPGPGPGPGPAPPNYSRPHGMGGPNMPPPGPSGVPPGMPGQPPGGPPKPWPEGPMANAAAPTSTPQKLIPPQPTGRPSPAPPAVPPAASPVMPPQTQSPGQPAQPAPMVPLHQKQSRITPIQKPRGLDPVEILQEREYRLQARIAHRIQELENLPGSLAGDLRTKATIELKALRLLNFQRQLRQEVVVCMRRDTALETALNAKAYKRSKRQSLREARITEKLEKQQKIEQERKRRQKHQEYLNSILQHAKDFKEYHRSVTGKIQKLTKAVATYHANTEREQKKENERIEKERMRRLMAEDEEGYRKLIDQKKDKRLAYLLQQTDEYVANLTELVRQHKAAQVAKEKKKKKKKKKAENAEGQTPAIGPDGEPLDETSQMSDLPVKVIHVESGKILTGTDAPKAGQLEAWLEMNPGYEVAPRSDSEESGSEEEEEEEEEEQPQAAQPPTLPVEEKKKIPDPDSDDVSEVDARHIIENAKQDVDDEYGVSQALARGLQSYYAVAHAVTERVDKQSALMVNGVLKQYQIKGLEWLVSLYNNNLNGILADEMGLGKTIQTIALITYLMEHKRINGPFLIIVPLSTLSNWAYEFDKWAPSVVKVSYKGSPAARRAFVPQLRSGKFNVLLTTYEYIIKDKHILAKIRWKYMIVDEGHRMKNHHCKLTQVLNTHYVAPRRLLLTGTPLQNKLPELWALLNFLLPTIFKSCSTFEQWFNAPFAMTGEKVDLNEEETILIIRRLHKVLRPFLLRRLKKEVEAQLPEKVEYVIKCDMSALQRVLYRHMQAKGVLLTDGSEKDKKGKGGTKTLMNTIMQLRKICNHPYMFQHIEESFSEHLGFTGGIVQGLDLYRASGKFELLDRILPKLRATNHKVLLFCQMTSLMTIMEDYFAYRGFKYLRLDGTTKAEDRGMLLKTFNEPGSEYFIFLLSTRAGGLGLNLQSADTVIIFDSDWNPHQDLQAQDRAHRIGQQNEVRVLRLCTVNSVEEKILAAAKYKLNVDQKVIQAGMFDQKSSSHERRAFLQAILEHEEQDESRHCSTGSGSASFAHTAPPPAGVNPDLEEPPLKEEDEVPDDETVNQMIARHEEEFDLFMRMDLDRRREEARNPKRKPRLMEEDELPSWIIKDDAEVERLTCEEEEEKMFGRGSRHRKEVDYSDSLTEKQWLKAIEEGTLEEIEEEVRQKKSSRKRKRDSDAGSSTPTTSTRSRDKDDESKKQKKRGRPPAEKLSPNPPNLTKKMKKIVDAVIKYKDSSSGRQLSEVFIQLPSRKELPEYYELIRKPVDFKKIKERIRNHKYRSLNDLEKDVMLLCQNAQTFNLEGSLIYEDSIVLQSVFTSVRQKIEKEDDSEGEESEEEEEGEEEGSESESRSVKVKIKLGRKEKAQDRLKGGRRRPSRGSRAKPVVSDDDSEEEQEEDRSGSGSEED
row,Variant,effect of a mutation on the interaction
1,MSRVPSPPPPAEMSSGPVAESWCYTQIKVVKFSYMWTINNFSFCREEMGEVIKSSTFSSGANDKLKWCLRVNPKGLDEESKDYLSLYLLLVSCPKSEVRAKCKFSILNAKGEETKAMESQRAYRFVQGKDWGFKKFIRRDFLLDEANGLLPDDKLTLFCEVSVVQDSVNISGQNTMNMVKVPECRLADELGGLWENSRFTDCCLCVAGQEFQAHKAILAARSPVFSAMFEHEMEESKKNRVEINDVEPEVFKEMMCFIYTGKAPNLDKMADDLLAAADKYALERLKVMCEDALCSNLSVENAAEILILADLHSADQLKTQAVDFINYHASDVLETSGWKSMVVSHPHLVAEAYRSLASAQCPFLGPPRKRLKQS [F102C],with no effect

# Variants of: B1
# Details: with snf5_human SMARCB1, Q12824
# snf5_human SMARCB1, Q12824, sequence (Q12824 whole entry): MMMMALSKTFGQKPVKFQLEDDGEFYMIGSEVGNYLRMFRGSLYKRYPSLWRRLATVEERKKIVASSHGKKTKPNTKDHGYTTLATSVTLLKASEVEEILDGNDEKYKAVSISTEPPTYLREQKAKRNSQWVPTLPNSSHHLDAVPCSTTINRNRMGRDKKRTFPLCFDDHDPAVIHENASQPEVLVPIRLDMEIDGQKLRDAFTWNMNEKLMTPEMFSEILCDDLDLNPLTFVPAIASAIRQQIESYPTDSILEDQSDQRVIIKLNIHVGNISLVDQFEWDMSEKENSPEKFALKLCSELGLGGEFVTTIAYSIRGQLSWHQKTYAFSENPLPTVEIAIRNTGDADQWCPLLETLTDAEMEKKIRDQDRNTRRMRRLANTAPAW
row,Variant,effect of a mutation on the interaction
1,MSRVPSPPPPAEMSSGPVAESWCYTQIKVVKFSYMWTINNFSFCREEMGEVIKSSTFSSGANDKLKWCLRVNPKGLDEESKDYLSLYLLLVSCPKSEVRAKCKFSILNAKGEETKAMESQRAYRFVQGKDWGFKKFIRRDFLLDEANGLLPDDKLTLFCEVSVVQDSVNISGQNTMNMVKVPECRLADELGGLWENSRFTDCCLCVAGQEFQAHKAILAARSPVFSAMFEHEMEESKKNRVEINDVEPEVFKEMMCFIYTGKAPNLDKMADDLLAAADKYALERLKVMCEDALCSNLSVENAAEILILADLHSADQLKTQAVDFINYHASDVLETSGWKSMVVSHPHLVAEAYRSLASAQCPFLGPPRKRLKQS [F102C],with no effect

# Variants of: B1
# Details: with smo_human SMO
row,Variant,effect of a mutation on the interaction
1,MSRVPSPPPPAEMSSGPVAESWCYTQIKVVKFSYMWTINNFSFCREEMGEVIKSSTFSSGANDKLKWCLRVNPKGLDEESKDYLSLYLLLVSCPKSEVRAKCKFSILNAKGEETKAMESQRAYRFVQGKDWGFKKFIRRDFLLDEANGLLPDDKLTLFCEVSVVQDSVNISGQNTMNMVKVPECRLADELGGLWENSRFTDCCLCVAGQEFQAHKAILAARSPVFSAMFEHEMEESKKNRVEINDVEPEVFKEMMCFIYTGKAPNLDKMADDLLAAADKYALERLKVMCEDALCSNLSVENAAEILILADLHSADQLKTQAVDFINYHASDVLETSGWKSMVVSHPHLVAEAYRSLASAQCPFLGPPRKRLKQS [F102C],with no effect

# Variants of: B1
# Details: with socs1_human SOCS1, O15524
# socs1_human SOCS1, O15524, sequence (O15524 whole entry): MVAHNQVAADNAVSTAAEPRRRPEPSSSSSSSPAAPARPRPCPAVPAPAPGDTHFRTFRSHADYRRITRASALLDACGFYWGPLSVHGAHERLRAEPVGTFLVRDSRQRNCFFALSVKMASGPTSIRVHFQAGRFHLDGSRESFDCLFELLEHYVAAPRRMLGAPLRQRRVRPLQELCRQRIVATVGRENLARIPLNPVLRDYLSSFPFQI
row,Variant,effect of a mutation on the interaction
1,MSRVPSPPPPAEMSSGPVAESWCYTQIKVVKFSYMWTINNFSFCREEMGEVIKSSTFSSGANDKLKWCLRVNPKGLDEESKDYLSLYLLLVSCPKSEVRAKCKFSILNAKGEETKAMESQRAYRFVQGKDWGFKKFIRRDFLLDEANGLLPDDKLTLFCEVSVVQDSVNISGQNTMNMVKVPECRLADELGGLWENSRFTDCCLCVAGQEFQAHKAILAARSPVFSAMFEHEMEESKKNRVEINDVEPEVFKEMMCFIYTGKAPNLDKMADDLLAAADKYALERLKVMCEDALCSNLSVENAAEILILADLHSADQLKTQAVDFINYHASDVLETSGWKSMVVSHPHLVAEAYRSLASAQCPFLGPPRKRLKQS [F102C],with no effect

# Variants of: B1
# Details: with sox10_human SOX10, P56693
# sox10_human SOX10, P56693, sequence (P56693 whole entry): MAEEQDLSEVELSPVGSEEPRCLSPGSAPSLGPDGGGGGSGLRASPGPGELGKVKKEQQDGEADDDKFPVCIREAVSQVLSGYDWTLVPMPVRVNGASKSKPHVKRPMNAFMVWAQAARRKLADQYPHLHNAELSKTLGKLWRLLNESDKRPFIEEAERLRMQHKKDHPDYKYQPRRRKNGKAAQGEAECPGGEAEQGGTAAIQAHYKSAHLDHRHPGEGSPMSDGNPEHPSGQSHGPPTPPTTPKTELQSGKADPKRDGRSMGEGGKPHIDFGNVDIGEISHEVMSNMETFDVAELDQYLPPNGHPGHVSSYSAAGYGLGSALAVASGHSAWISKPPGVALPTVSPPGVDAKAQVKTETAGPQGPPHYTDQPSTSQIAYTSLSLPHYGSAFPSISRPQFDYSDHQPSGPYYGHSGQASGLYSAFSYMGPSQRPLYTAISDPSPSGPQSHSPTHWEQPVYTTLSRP
row,Variant,effect of a mutation on the interaction
1,MSRVPSPPPPAEMSSGPVAESWCYTQIKVVKFSYMWTINNFSFCREEMGEVIKSSTFSSGANDKLKWCLRVNPKGLDEESKDYLSLYLLLVSCPKSEVRAKCKFSILNAKGEETKAMESQRAYRFVQGKDWGFKKFIRRDFLLDEANGLLPDDKLTLFCEVSVVQDSVNISGQNTMNMVKVPECRLADELGGLWENSRFTDCCLCVAGQEFQAHKAILAARSPVFSAMFEHEMEESKKNRVEINDVEPEVFKEMMCFIYTGKAPNLDKMADDLLAAADKYALERLKVMCEDALCSNLSVENAAEILILADLHSADQLKTQAVDFINYHASDVLETSGWKSMVVSHPHLVAEAYRSLASAQCPFLGPPRKRLKQS [F102C],with no effect

# Variants of: B1
# Details: with sox2_human SOX2, P48431
# sox2_human SOX2, P48431, sequence (P48431 whole entry): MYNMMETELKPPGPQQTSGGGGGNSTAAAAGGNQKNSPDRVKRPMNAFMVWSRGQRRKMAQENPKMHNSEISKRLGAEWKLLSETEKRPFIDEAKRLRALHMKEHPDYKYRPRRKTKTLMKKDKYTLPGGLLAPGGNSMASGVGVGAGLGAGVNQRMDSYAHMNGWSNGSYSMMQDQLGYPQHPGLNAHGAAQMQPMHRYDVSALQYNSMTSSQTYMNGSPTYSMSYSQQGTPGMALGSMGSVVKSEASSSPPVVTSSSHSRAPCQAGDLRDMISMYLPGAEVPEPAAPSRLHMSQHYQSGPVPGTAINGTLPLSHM
row,Variant,effect of a mutation on the interaction
1,MSRVPSPPPPAEMSSGPVAESWCYTQIKVVKFSYMWTINNFSFCREEMGEVIKSSTFSSGANDKLKWCLRVNPKGLDEESKDYLSLYLLLVSCPKSEVRAKCKFSILNAKGEETKAMESQRAYRFVQGKDWGFKKFIRRDFLLDEANGLLPDDKLTLFCEVSVVQDSVNISGQNTMNMVKVPECRLADELGGLWENSRFTDCCLCVAGQEFQAHKAILAARSPVFSAMFEHEMEESKKNRVEINDVEPEVFKEMMCFIYTGKAPNLDKMADDLLAAADKYALERLKVMCEDALCSNLSVENAAEILILADLHSADQLKTQAVDFINYHASDVLETSGWKSMVVSHPHLVAEAYRSLASAQCPFLGPPRKRLKQS [F102C],with no effect

# Variants of: B1
# Details: with src_human SRC
row,Variant,effect of a mutation on the interaction
1,MSRVPSPPPPAEMSSGPVAESWCYTQIKVVKFSYMWTINNFSFCREEMGEVIKSSTFSSGANDKLKWCLRVNPKGLDEESKDYLSLYLLLVSCPKSEVRAKCKFSILNAKGEETKAMESQRAYRFVQGKDWGFKKFIRRDFLLDEANGLLPDDKLTLFCEVSVVQDSVNISGQNTMNMVKVPECRLADELGGLWENSRFTDCCLCVAGQEFQAHKAILAARSPVFSAMFEHEMEESKKNRVEINDVEPEVFKEMMCFIYTGKAPNLDKMADDLLAAADKYALERLKVMCEDALCSNLSVENAAEILILADLHSADQLKTQAVDFINYHASDVLETSGWKSMVVSHPHLVAEAYRSLASAQCPFLGPPRKRLKQS [F102C],with no effect

# Variants of: B1
# Details: with whr1_human WHR1, P49842
# whr1_human WHR1, P49842, sequence (P49842 whole entry): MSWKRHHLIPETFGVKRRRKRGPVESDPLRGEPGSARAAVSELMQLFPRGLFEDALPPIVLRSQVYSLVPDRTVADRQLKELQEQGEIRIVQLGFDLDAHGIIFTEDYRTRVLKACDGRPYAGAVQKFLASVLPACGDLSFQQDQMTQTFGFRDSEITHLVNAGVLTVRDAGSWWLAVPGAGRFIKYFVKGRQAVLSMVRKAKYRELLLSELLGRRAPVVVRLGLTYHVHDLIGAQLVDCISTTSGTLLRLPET
row,Variant,effect of a mutation on the interaction
1,MSRVPSPPPPAEMSSGPVAESWCYTQIKVVKFSYMWTINNFSFCREEMGEVIKSSTFSSGANDKLKWCLRVNPKGLDEESKDYLSLYLLLVSCPKSEVRAKCKFSILNAKGEETKAMESQRAYRFVQGKDWGFKKFIRRDFLLDEANGLLPDDKLTLFCEVSVVQDSVNISGQNTMNMVKVPECRLADELGGLWENSRFTDCCLCVAGQEFQAHKAILAARSPVFSAMFEHEMEESKKNRVEINDVEPEVFKEMMCFIYTGKAPNLDKMADDLLAAADKYALERLKVMCEDALCSNLSVENAAEILILADLHSADQLKTQAVDFINYHASDVLETSGWKSMVVSHPHLVAEAYRSLASAQCPFLGPPRKRLKQS [F102C],with no effect

# Variants of: B1
# Details: with stk38_human STK38, Q15208
# stk38_human STK38, Q15208, sequence (Q15208 whole entry, looked up): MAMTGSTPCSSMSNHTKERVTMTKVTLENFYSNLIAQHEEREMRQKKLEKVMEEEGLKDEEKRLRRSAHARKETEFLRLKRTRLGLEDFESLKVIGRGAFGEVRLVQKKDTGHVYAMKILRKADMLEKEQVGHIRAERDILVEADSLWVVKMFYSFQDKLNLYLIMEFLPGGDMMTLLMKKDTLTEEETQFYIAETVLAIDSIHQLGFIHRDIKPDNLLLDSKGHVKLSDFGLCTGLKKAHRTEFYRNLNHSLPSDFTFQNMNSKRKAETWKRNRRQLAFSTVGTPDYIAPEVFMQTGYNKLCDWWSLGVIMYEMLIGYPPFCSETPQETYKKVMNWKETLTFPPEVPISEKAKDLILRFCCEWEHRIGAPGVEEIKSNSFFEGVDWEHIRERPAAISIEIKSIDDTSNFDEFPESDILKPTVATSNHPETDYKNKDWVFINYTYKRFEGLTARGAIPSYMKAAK
row,Variant,effect of a mutation on the interaction
1,MSRVPSPPPPAEMSSGPVAESWCYTQIKVVKFSYMWTINNFSFCREEMGEVIKSSTFSSGANDKLKWCLRVNPKGLDEESKDYLSLYLLLVSCPKSEVRAKCKFSILNAKGEETKAMESQRAYRFVQGKDWGFKKFIRRDFLLDEANGLLPDDKLTLFCEVSVVQDSVNISGQNTMNMVKVPECRLADELGGLWENSRFTDCCLCVAGQEFQAHKAILAARSPVFSAMFEHEMEESKKNRVEINDVEPEVFKEMMCFIYTGKAPNLDKMADDLLAAADKYALERLKVMCEDALCSNLSVENAAEILILADLHSADQLKTQAVDFINYHASDVLETSGWKSMVVSHPHLVAEAYRSLASAQCPFLGPPRKRLKQS [F102C],with no effect

# Variants of: B1
# Details: with eloc_human ELOC
row,Variant,effect of a mutation on the interaction
1,MSRVPSPPPPAEMSSGPVAESWCYTQIKVVKFSYMWTINNFSFCREEMGEVIKSSTFSSGANDKLKWCLRVNPKGLDEESKDYLSLYLLLVSCPKSEVRAKCKFSILNAKGEETKAMESQRAYRFVQGKDWGFKKFIRRDFLLDEANGLLPDDKLTLFCEVSVVQDSVNISGQNTMNMVKVPECRLADELGGLWENSRFTDCCLCVAGQEFQAHKAILAARSPVFSAMFEHEMEESKKNRVEINDVEPEVFKEMMCFIYTGKAPNLDKMADDLLAAADKYALERLKVMCEDALCSNLSVENAAEILILADLHSADQLKTQAVDFINYHASDVLETSGWKSMVVSHPHLVAEAYRSLASAQCPFLGPPRKRLKQS [F102C],with no effect
